How the values were obtained:
[1] = target: SARS-CoV-2 spike (S) protein, recombinant (SARS-CoV-2) (UniProt P0DTC2)
[2] = target: SARS-CoV-2 spike (S) protein, recombinant (SARS-CoV-2) (UniProt P0DTC2); remark: listed apart in the source

CC6.33 (antibody) showed a neutralization IC50 of SARS-CoV-2 pseudovirus (complete neutralization) [1] of 0.039 µg/mL.

CC12.1 (antibody) was tested, and the in vitro IC50 neutralization against pseudovirus; pair blocked: S with ACE2 [2] was 0.019 µg/mL.

CC12.23 (antibody) was tested, and the IC50 neutralization (pseudovirus) [2] was 22 µg/mL.
